Test results: patent US8637043B2, “Compositions useful as ligands for the formyl peptide receptor like 1 receptor and methods of use thereof” (Chemocentryx, Inc., priority 2001, dated 2014)
“And” between values parts separate entries of the source, which are not always exact repeats. Equal values may be shown once. “Also recorded” adds a separate entry of the source. Ends that are not written are not given here.

B1: CKβ8-1(25-116): novel NH2-terminal truncated form of CKβ8-1, SEQ ID NO: 16, human recombinant chemokine (protein, listed as Homo sapiens)
chain: MLWRRKIGPQMTLSHAAGFHATSADCCISYTPRSIPCSLLESYFETNSECSKPGVIFLTKKGRRFCANPSDKQVQVCMRMLKLDTRIKTRKN
B2: CKβ8-1(1-116): alternatively spliced form of CKβ8, 116 amino acids, human recombinant chemokine (protein, listed as Homo sapiens)
chain: RVTKDAETEFMMSKLPLENPVLLDMLWRRKIGPQMTLSHAAGFHATSADCCISYTPRSIPCSLLESYFETNSECSKPGVIFLTKKGRRFCANPSDKQVQVCMRMLKLDTRIKTRKN
B3: CKβ8(25-99): known truncated CKβ8 variant, human recombinant chemokine from R&D Systems (protein, listed as Homo sapiens)
chain: RFHATSADCCISYTPRSIPCSLLESYFETNSECSKPGVIFLTKKGRRFCANPSDKQVQVCMRMLKLDTRIKTRKN

Assays:
[1] = tested on: human neutrophils; test: Calcium flux in human neutrophils; type: cell-based; conditions: for calcium flux: human neutrophils
Method: (§1) Ca^2+ mobilization responses were performed using the intracellular ratiometric fluorescent dye, lndo-1. Cells were loaded with Indo-1/AM (3 μM; Molecular Probes, Eugene, Oreg.) in culture medium (45 min, 20° C., 10^7 cells/ml). After dye loading, cells were washed once with 10 ml PBS) and resuspended at 10^6 cell/ml in HBSS containing 1% FBS. Cytosolic [Ca^2+] release was determined using excitation at 350 nm using a Photon Technology International fluorimeter (excitation at 350 nm, ratioed dual emission at 400 and 490 nm).
The human recombinant chemokines, leukotactin, MlP-1α, three known CKβ8 variants CKβ8(1-99), CKβ8(25-99), CKβ8-1(1-116) and a novel NH2-terminal truncated form of CKβ8-1, CKβ8-1 (25-116) were obtained from R&D Systems (Minneapolis, Minn.). Human monocytes were generated from buffy coats (Stanford Blood Center, Palo Alto, Calif.) following a standard protocol. Briefly, PBMC were isolated by standard density gradient centrifugation (Ficoll-Paque-Plus, Pharmacia). Monocytes were purified using CD14 Microbeads (Miltenyi, Auburn, Calif.) magnetic positive selection. Human neutrophils were isolated from fresh peripheral blood from healthy individuals by gradient centrifugation on Ficoll-Hypaque (Hyclone, Calif.).
Human monocytes were either generated from buffy coats (Stanford Blood Center, Palo Also, Calif.) or from fresh blood of healthy individuals following a standard protocol. Briefly, PBMC were isolated by a Ficoll-Paque gradient centrifugation (Ficoll-Paque-Plus, Pharmacia). Monocytes were purified by CD14 Microbeads (Miltenyi) magnetic positive selection. Human neutrophils were isolated from fresh blood by dextran sedimentation and gradient centrifugation Ficoll-Paque gradient centrifugation. All cells were washed and resuspended (1×10^7/ml) in RPMI medium with 10% FBS.
as §1, with “an” for “the”, “Indo-1.” for “lndo-1.”, “Probes (Eugene, Oreg.))” for “Probes, Eugene, Oreg.)”, “cells/mi).” for “cells/ml).”, “(10” for “with 10”

[2] = target: T1, CCR1 (Homo sapiens, UniProt P32246); test: Intracellular calcium flux in HEK293-CCR1 transfectants; type: cell-based; conditions: 100 nM; for maximal receptor stimulation compared with leukotactin: same concentration of leukotactin; for calcium flux: HEK293-CCR1 transfectants
T1 construct: full length cDNA encoding CCR1 was cloned by the polymerase chain reaction (PCR) from genomic DNA isolated from human peripheral blood cells; expressed in transfected cells; pcDNA3.1 vector)
T1 sequence (P32246 1-355): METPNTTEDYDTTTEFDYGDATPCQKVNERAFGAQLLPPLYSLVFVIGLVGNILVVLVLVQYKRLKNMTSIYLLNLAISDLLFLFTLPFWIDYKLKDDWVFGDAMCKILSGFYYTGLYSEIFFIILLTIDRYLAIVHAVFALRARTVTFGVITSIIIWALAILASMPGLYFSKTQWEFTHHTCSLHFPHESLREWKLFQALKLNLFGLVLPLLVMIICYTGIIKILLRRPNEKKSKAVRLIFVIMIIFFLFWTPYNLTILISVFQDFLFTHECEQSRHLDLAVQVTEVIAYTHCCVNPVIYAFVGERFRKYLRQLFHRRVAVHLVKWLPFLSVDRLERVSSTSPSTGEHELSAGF
Method: The human recombinant chemokines, leukotactin, three known CKβ8 variants CKβ8(1-99), CKβ8(25-99), CKβ8-1(1-116) and a novel NH2-terminal truncated form of CKβ8-1, CKβ8-1 (25-116) were obtained from R&D Systems (Minneapolis, Minn.). CKβ8-1(25-116) was compared with the other three variants for the ability to elicit an intracellular calcium mobilization in stable human CCR1 transfected […] cells. Human HEK293-CCR1 cells were prepared using Fugena 6 (Roche, Ind.) following the manufacturer's protocol. The HEK-293 cell lines were maintained in DMEM with 10% FBS supplemented with 800 μg/ml G-418.
Stable expression of human chemokine receptor CCR1 in HEK293 cell was obtained as follows: full length cDNA encoding CCR1 was cloned by the polymerase chain reaction (PCR) from genomic DNA isolated from human peripheral blood cells. The PCR product was cloned into pcDNA3.1 (Invitrogen, Carlsbad, Calif.) using standard molecular cloning procedures and completely sequenced to confirm identity.
Two micrograms of the CCR1/pcDNA3.1 construct were used to transfect the HEK293 cells as follows. FuGENE:DNA complex was prepared by mixing 6.0 μl FuGENE 6 reagent (Roche Molecular Biochemicals, Calif.) and 2 μg CCR1/pcDNA3.1 in 100 ul of serum-free medium (Hyclone, Colo.). After incubating for 30 minutes at room temperature, the complex was added to a 60 mm culture plate containing 0.5-1×10^6 cells in 10 ml DMEM medium supplemented with 10% FBS (Hyclone, Colo.). After mixing, the cells were returned to the incubator to culture at 37° C. for two days. At 48 hours post-transfection, Genetinin (G418) (Mediatech, Herndon, Va.) was added at a final concentration of 800 ug/ml. The cells were then plated in 96-well plates at a concentration of 20,000 cells/well. After 2-3 weeks under G418 selection, stable geneticin-resistant CCR1 expressing cells were assessed for their ability to mobilize calcium in response to MIP-1α at a concentration of 1-500 nM.
as §1
With HEKCCR1-293 transfectants, CKβ8-1(25-116) and the other CKβ8 variants induced a rapid calcium flux at 100 nM.

[3] = target: monocytes; test: 125I-MIP-1α binding competition, monocytes; design: species or system human; conditions: for IC50: Monocytes; for MIP-1α displacement on monocytes compared with HEK293-CCR1 cells: comparison in words
Method: The binding characteristics of CCL23 variants was compared in human CCR1 expressing cells. The ability of MIP-1α and the CCL23 variants CKβ8(1-99), CKβ8(25-99), CKβ8-1(1-116) and CKβ8-1(25-116) to compete with ^125I-MIP-1α binding was investigated in HEK293-CCR1 cells (prepared as in Example 1). The cells were incubated with ^125I-labeled MIP-1α (final conc. {dot over (˜)}0.05 nM) in the presence of unlabeled chemokine (3 hours at 4° C.: 25 mM HEPES, 140 mM NaCl, 1 mM CaCl2, 5 mM MgCl2 and 0.2% BSA, adjusted to pH 7.1). Reactions mixtures were aspirated onto PEI-treated GF/B glass filters using a cell harvester (Packard). The filters were washed twice (25 mM HEPES, 500 mM NaCl, 1 mM CaCl2, 5 mM MgCl2, adjusted to pH 7.1). Scintillant (MicroScint-10; 35 μl) was added to dried filters and the filiters counted in a Packard Topcount scintillation counter. Data were analyzed and plotted using Prism software (GraphPad Software, San Diego, Calif.).
Simiar binding competition tests were conducted on monocytes and neutrophils. These cells were prepared as in Example 2.

| Molecule | calcium flux ([1]; Example 8) | maximal receptor stimulation compared with leukotactin [2] | calcium flux [2] | calcium flux ([1]; 100 nM) | magnitude of calcium release compared with leukotactin ([1]; neutrophils, same amount of leukotactin) | IC50 [3] | MIP-1α displacement on monocytes compared with HEK293-CCR1 cells [3] | MIP-1α displacement activity on monocytes versus HEK293-CCR1 cells ([3]; fold higher on monocytes) |
| --- | --- | --- | --- | --- | --- | --- | --- | --- |
| MLWRRKIGPQMTLSHAAY [SEQ ID NO: 6] | robust calcium flux | – | – | – | – | – | – | – |
| MLWRRKIGPQMTLSHAAG [SEQ ID NO: 1] | robust calcium flux | – | – | – | – | – | – | – |
| B1 | robust calcium flux | equivalent to those obtained with the same concentration of the CCR1 agonist, leukotactin | high calcium response | induced an unique calcium release | much higher than observed for the same amount of leukotactin stimulation | 5 nM and 5.1 nM | higher MIP-1α displacement activities | over 10 fold |
| B2 | – | – | lower | neither MlP-1α nor CKβ8(1-99), CKβ8(25-99) or CKβ8(1-116) induced a calcium flux | – | 55 nM | higher MIP-1α displacement activities | – |
| B3 | – | equivalent to those obtained with the same concentration of the CCR1 agonist, leukotactin | high calcium response; also recorded: lower | neither MlP-1α nor CKβ8(1-99), CKβ8(25-99) or CKβ8(1-116) induced a calcium flux | – | 0.25 nM | – | – |
